# Earlier results in patent US20110218118A1, “PEPTIDE MODULATORS OF CELLULAR PHENOTYPE AND BI-NUCLEIC ACID FRAGMENT LIBRARY” (PHYLOGICA LIMITED, priority 2004, published 2011).
# Molecular target: T1, human cyclin E (Homo sapiens, UniProt P24864)
# T1 construct: expressed in transfected cells; host or cells: Saccharomyces cerevisiae strain AZ-1 (huCDK2::his2), mated with PRT 51
# Details: yeast over-expressing human cyclin E and co-expressing human Cdk2
# T1 sequence (P24864 16-410): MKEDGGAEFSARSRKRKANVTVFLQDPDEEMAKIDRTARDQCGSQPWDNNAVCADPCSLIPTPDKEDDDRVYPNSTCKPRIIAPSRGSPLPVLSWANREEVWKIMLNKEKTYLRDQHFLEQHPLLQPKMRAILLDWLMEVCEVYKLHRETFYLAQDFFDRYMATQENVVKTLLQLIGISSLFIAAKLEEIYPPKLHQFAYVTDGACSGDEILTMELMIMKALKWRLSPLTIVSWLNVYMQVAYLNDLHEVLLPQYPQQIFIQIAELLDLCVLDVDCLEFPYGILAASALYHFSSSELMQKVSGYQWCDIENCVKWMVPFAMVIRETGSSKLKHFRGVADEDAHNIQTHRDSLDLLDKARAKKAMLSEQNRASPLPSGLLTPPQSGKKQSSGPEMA
substance,measurement,value
"p21^CIP1: positive control protein, cDNA (SEQ ID NO: 60) cloned as in-frame fusion into the pMF4-5 plasmid",rescue of the cyclin E lethal phenotype in yeast,rescue the lethal phenotype in yeast
